The results in this text go back to paper PMC7201283, “Crystal structure of the NS3-like helicase from Alongshan virus” (IUCrJ, 2020).

As a reminder, the Km is the substrate concentration at which the rate is half of its maximum. The kcat is the maximal rate divided by the concentration of active sites.

For this data set, the system named is O=c1ccn([C@@H]2O[C@H](COP(=O)(O)OP(=O)(O)OP(=O)(O)O)[C@@H](O)[C@H]2O)c(=O)[nH]1. The data set is described as follows: purified protein. As to conditions: 20 mM Tris-HCl pH 8.0, 5 mM DTT, 10 mM MgCl2, 28°C, 16 nM enzyme, no RNA.

In the case of ALSV NS3-Hel (Alongshan virus), the Km is listed as 185 ± 19 µM and the turnover number (kcat) was determined as 0.85 ± 0.02 s⁻¹.
